Measurements: ChEMBL document CHEMBL1157152, “Kinetic parameters and recognition of thymidine analogues with varying functional groups by thymidine phosphorylase” (Bioorg Med Chem, 2008)

Legend:
[1] = substrate: Cc1cn([C@H]2CC[C@@H](CO)O2)c(=O)[nH]c1=O; assay: (§1) Activity of Escherichia coli thymidine phosphorylase
[2] = substrate: Cc1cn([C@H]2C[C@H](O)[C@@H](CO)O2)c(=O)[nH]c1=O; assay: as §1
[3] = substrate: Cc1cn([C@H]2C[C@H](O)[C@@H](C)O2)c(=O)[nH]c1=O; assay: as §1

B1: Thymidine phosphorylase (Escherichia coli K-12), P07650 (protein)
chain: MFLAQEIIRKKRDGHALSDEEIRFFINGIRDNTISEGQIAALAMTIFFHDMTMPERVSLTMAMRDSGTVLDWKSLHLNGPIVDKHSTGGVGDVTSLMLGPMVAACGGYIPMISGRGLGHTGGTLDKLESIPGFDIFPDDNRFREIIKDVGVAIIGQTSSLAPADKRFYATRDITATVDSIPLITASILAKKLAEGLDALVMDVKVGSGAFMPTYELSEALAEAIVGVANGAGVRTTALLTDMNQVLASSAGNAVEVREAVQFLTGEYRNPRLFDVTMALCVEMLISGKLAKDDAEARAKLQAVLDNGKAAEVFGRMVAAQKGPTDFVENYAKYLPTAMLTKAVYADTEGFVSEMDTRALGMAVVAMGGGRRQASDTIDYSVGFTDMARLGDQVDGQRPLAVIHAKDENNWQEAAKAVKAAIKLADKAPESTPTVYRRISE
Km [1]: 32 mM
Vmax [1]: 0.014 mM/min
Km [2]: 2.5 mM
Vmax [2]: 5.2 mM/min
Km [3]: 10 mM
Vmax [3]: 3.4 mM/min
